Results as given in patent US20250186597A1, “TARGETED IMMUNE ACTIVATION WITH IL-18 IMMUNOCYTOKINES” (BRIGHT PEAK THERAPEUTICS AG, priority 2023, published 2025).

Tested on: NK92 cells
Test: IFN gamma secretion assay in NK92 cells (Example 10)
Assay type: cell-based, human
Conditions: IFNγ secretion, 1 ng/ml IL-12
Protocol: The IFNγ-secretion stimulating activity of the unconjugated IL-18 variants and corresponding IL-18 immunocytokines was evaluated on NK92 cell line. The NK cell line NK-92 derived from a patient with lymphoma (ATCC, Cat #CRL-2407) was cultured in aMEM medium supplemented with 12.5% FCS, 12.5% horse serum (HS), 50 uM B-mercaptoEthanol, and 2 ng/ml of recombinant Human Interleukin-2 (IL-2).
On the day of experiment, cells were harvested and washed with aMEM medium without IL-2 and resuspended in medium (w/o IL-2) containing 1 ng/ml of recombinant human Interleukin-12 (SinoBiologicals, Cat #CT011-H08H). After counting, cells were seeded at 100 000 cells/well in a 384 well titer plate and incubated at 37° C./5% CO2. Sixteen 4-fold serial dilutions of IL-18 analytes were prepared in aMEM medium—1 ng/ml IL-12 and were added to the NK-92 cells. […]
After 16-20 h incubation at 37° C./5% CO2, 5 μl of supernatant were carefully transferred to a 384 microwells OPTIPlate (Perkin Elmer; Cat #6007270) and Interferon-gamma (IFNγ) levels measured using the Human IFNγ AlphaLISA Assay Kit (Perkin Elmer, Cat #AL217C). […] AlphaLisa signal was then measured on an Enspire plate reader (Perkin Elmer) using 680 and 615 nm as excitation and emission wavelengths respectively. Half maximal effective concentration (EC50) was calculated based on a variable slope, four parameter analysis using GraphPad PRISM software.

B1: SEQ ID NO: 60: IL-18 polypeptide: E6K, C38Q, K53A (protein)
chain: YFGKLKSKLSVIRNLNDQVLFIDQGNRPLFEDMTDSDQRDNAPRTIFIISMYADSQPRGMAVTISVKCEKISTLSCENKIISFKEMNPPDNIKDTKSDIIFFQRSVPGHDNKMQFESSSYEGYFLACEKERDLFKLILKKEDELGDRSIMFTVQNED
- EC50: 8 pM
